Legend:
[1] = biological target: T1, Peptide:N-glycanase from yeast (Png1p), full length (S. cerevisiae, UniProt Q02890 1-363); assay: SPR; RNase B (40 µg/ml, 10 mM sodium acetate pH 5.31) amine-coupled to a CT405 chip; Png1p or Png1p-ΔH1 as analytes (80-1000 nM), 25°C, 10 mM HEPES pH 7.4, 5 µl/min; 1:1 Langmuir model, global fit; KD = koff/kon; conditions: both partners purified
T1 construct: Png1p (peptide:N-glycanase), S. cerevisiae W303-1a, gene amplified from genomic DNA, amino acids 1-363, cloned into EcoRI and HindIII sites of pET-22b(+); Plasmid pET-22b/png1p; eluted as 'Protein-His6'; The vector may add further residues at the N-terminus (cloning at EcoRI of pET-22b); also called PNGase; wild type Png1p; source: E. coli BL21 (DE3) pLysS, purified (Ni2+-NTA)
T1 sequence (looked up): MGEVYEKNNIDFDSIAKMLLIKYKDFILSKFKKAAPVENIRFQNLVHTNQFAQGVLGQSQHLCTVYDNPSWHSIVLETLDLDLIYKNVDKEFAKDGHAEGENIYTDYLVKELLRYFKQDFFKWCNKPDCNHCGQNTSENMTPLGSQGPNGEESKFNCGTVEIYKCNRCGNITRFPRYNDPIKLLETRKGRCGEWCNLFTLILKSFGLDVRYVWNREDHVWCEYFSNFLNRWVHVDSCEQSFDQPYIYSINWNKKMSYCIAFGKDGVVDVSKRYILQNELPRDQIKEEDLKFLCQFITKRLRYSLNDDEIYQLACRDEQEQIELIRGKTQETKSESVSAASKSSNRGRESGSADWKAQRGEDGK

[2] = biological target: T2, Png1p-ΔH1 (33-363 aa), N-terminal H1 helix deletion mutant of S. cerevisiae Png1p (S. cerevisiae, UniProt Q02890 33-363); assay: as above; conditions: both partners purified
T2 construct: Png1p (peptide:N-glycanase), S. cerevisiae W303-1a, amino acids 33-363 (lacks the N-terminal H1 helix), cloned into EcoRI and HindIII sites of pET-22b(+); Plasmid pET-22b/png1p-ΔH1; eluted as 'Protein-His6'; also called N-terminal H1 deletion mutant; source: E. coli BL21 (DE3) pLysS, purified (Ni2+-NTA)
T2 sequence (looked up): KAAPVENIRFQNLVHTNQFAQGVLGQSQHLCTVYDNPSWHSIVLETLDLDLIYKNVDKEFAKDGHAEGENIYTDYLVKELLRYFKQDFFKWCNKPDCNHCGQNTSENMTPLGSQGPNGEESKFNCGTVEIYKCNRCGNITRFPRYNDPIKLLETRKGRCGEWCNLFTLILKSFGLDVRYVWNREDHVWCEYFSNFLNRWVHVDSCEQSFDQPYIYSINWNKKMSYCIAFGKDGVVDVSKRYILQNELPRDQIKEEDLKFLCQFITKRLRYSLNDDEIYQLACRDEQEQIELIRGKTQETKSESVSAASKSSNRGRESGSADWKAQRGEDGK

Kd [1]: 7.7 µM | koff [1]: 0.094 s⁻¹ | kon [1]: 12200 M⁻¹ s⁻¹ | Kd [2]: 2.9 µM | koff [2]: 0.05 s⁻¹ | kon [2]: 17000 M⁻¹ s⁻¹
B1: Ribonuclease B (RNase B), denatured (natural protein, UniProt P61823 27-150, looked up)
chain: KETAAAKFERQHMDSSTSAASSSNYCNQMMKSRNLTKDRCKPVNTFVHESLADVQAVCSQKNVACKNGQTNCYQSYSTMSITDCRETGSSKYPNCAYKTTQANKHIIVACEGNPYVPVHFDASV
modifications: N-linked glycan (glycoprotein; position not stated)
notes: Ribonuclease B, the glycosylated form of pancreatic ribonuclease; Denatured by heating at 100°C for 10 min and rapid freezing (deglycosylation methods); also called denatured RNase B

Reference: article PMC2791212, “N-Terminal Deletion of Peptide:N-Glycanase Results in Enhanced Deglycosylation Activity” (PLoS ONE, 2009)
